# Source: the Human Domainome abundance scans (Beltran et al. 2025)
# ± gives the uncertainty stated by the source.
# B1: Zinc finger homeobox protein 4, residues 2086 to 2141; numbered along this chain, Q86UP3 (parent)
# chain: RPRTRITDDQLKILRAYFDINNSPSEEQIQEMAEKSGLSQKVIKHWFRNTLFKERQ
# Variants of: B1
# Assay: abundance fitness (aPCA) (normalised: wild type 0, dead -1); higher = more abundant; growth selection in yeast, the domain comes from the species named
# Settings: Homo sapiens
row,Variant,abundance fitness
1,RPRTRITDDQLKILRAYFDINNSPSEEQIQEMAWKSGLSQKVIKHWFRNTLFKERQ,-0.276 ± 0.098
2,RPRTRITDDQLKILRAYFDINNSPSEEQIQEMACKSGLSQKVIKHWFRNTLFKERQ,-0.429 ± 0.13
3,RPRTRITDDQLKILRAYFDINNSPSEEQIQEMAFKSGLSQKVIKHWFRNTLFKERQ,-0.392 ± 0.12
4,RPRTRITDDQLKILRAYFDINNSPSEEQIQEMAYKSGLSQKVIKHWFRNTLFKERQ,-0.502 ± 0.2
5,RPRTRITDDQLKILRAYFDINNSPSEEQIQEMALKSGLSQKVIKHWFRNTLFKERQ,-0.054 ± 0.085
6,RPRTRITDDQLKILRAYFDINNSPSEEQIQEMANKSGLSQKVIKHWFRNTLFKERQ,-0.136 ± 0.14
7,RPRTRITDDQLKILRAYFDINNSPSEEQIQEMAAKSGLSQKVIKHWFRNTLFKERQ,-0.011 ± 0.084
8,RPRTRITDDQLKILRAYFDINNSPSEEQIQEMADKSGLSQKVIKHWFRNTLFKERQ,-0.014 ± 0.1
9,RPRTRITDDQLKILRAYFDINNSPSEEQIQEMAKKSGLSQKVIKHWFRNTLFKERQ,-0.147 ± 0.14
10,RPRTRITDDQLKILRAYFDINNSPSEEQIQEMAHKSGLSQKVIKHWFRNTLFKERQ,-0.314 ± 0.16
11,RPRTRITDDQLKILRAYFDINNSPSEEQIQEMATKSGLSQKVIKHWFRNTLFKERQ,0.023 ± 0.11
12,RPRTRITDDQLKILRAYFDINNSPSEEQIQEMAMKSGLSQKVIKHWFRNTLFKERQ,-0.221 ± 0.13
13,RPRTRITDDQLKILRAYFDINNSPSEEQIQEMAGKSGLSQKVIKHWFRNTLFKERQ,0.033 ± 0.068
14,RPRTRITDDQLKILRAYFDINNSPSEEQIQEMAIKSGLSQKVIKHWFRNTLFKERQ,-0.211 ± 0.19
15,RPRTRITDDQLKILRAYFDINNSPSEEQIQEMASKSGLSQKVIKHWFRNTLFKERQ,-0.162 ± 0.083
16,RPRTRITDDQLKILRAYFDINNSPSEEQIQEMAVKSGLSQKVIKHWFRNTLFKERQ,-0.037 ± 0.073
17,RPRTRITDDQLKILRAYFDINNSPSEEQIQEMAPKSGLSQKVIKHWFRNTLFKERQ,-0.536 ± 0.14
18,RPRTRITDDQLKILRAYFDINNSPSEEQIQEMHEKSGLSQKVIKHWFRNTLFKERQ,0.191 ± 0.18
19,RPRTRITDDQLKILRAYFDINNSPSEEQIQEMCEKSGLSQKVIKHWFRNTLFKERQ,0.181 ± 0.12
20,RPRTRITDDQLKILRAYFDINNSPSEEQIQEMGEKSGLSQKVIKHWFRNTLFKERQ,0.056 ± 0.16
21,RPRTRITDDQLKILRAYFDINNSPSEEQIQEMREKSGLSQKVIKHWFRNTLFKERQ,0.05 ± 0.13
22,RPRTRITDDQLKILRAYFDINNSPSEEQIQEMKEKSGLSQKVIKHWFRNTLFKERQ,-0.126 ± 0.25
23,RPRTRITDDQLKILRAYFDINNSPSEEQIQEMWEKSGLSQKVIKHWFRNTLFKERQ,-0.582 ± 0.42
24,RPRTRITDDQLKILRAYFDINNSPSEEQIQEMYEKSGLSQKVIKHWFRNTLFKERQ,-0.531 ± 0.21

row,Variant,abundance fitness
1,RPRTRITDDQLKILRAYFDINNSPSEEQIQEMPEKSGLSQKVIKHWFRNTLFKERQ,-0.84 ± 0.19
2,RPRTRITDDQLKILRAYFDINNSPSEEQIQEMFEKSGLSQKVIKHWFRNTLFKERQ,-0.036 ± 0.11
3,RPRTRITDDQLKILRAYFDINNSPSEEQIQEMSEKSGLSQKVIKHWFRNTLFKERQ,-0.025 ± 0.11
4,RPRTRITDDQLKILRAYFDINNSPSEEQIQEMQEKSGLSQKVIKHWFRNTLFKERQ,0.127 ± 0.27
5,RPRTRITDDQLKILRAYFDINNSPSEEQIQEMVEKSGLSQKVIKHWFRNTLFKERQ,-0.169 ± 0.14
6,RPRTRITDDQLKILRAYFDINNSPSEEQIQEMDEKSGLSQKVIKHWFRNTLFKERQ,-0.337 ± 0.14
7,RPRTRITDDQLKILRAYFDINNSPSEEQIQEMIEKSGLSQKVIKHWFRNTLFKERQ,0.038 ± 0.17
8,RPRTRITDDQLKILRAYFDINNSPSEEQIQEMTEKSGLSQKVIKHWFRNTLFKERQ,0.029 ± 0.1
9,RPRTRITDDQLKILRAYFDINNSPSEEQIQEYAEKSGLSQKVIKHWFRNTLFKERQ,-0.212 ± 0.12
10,RPRTRITDDQLKILRAYFDINNSPSEEQIQEMAESSGLSQKVIKHWFRNTLFKERQ,-0.192 ± 0.077
11,RPRTRITDDQLKILRAYFDINNSPSEEQIQEMAELSGLSQKVIKHWFRNTLFKERQ,-0.261 ± 0.072
12,RPRTRITDDQLKILRAYFDINNSPSEEQIQEMAEESGLSQKVIKHWFRNTLFKERQ,-0.215 ± 0.1
13,RPRTRITDDQLKILRAYFDINNSPSEEQIQEMAEGSGLSQKVIKHWFRNTLFKERQ,-0.242 ± 0.07
14,RPRTRITDDQLKILRAYFDINNSPSEEQIQEMAEDSGLSQKVIKHWFRNTLFKERQ,-0.375 ± 0.12
15,RPRTRITDDQLKILRAYFDINNSPSEEQIQEMAEPSGLSQKVIKHWFRNTLFKERQ,-1.09 ± 0.16
16,RPRTRITDDQLKILRAYFDINNSPSEEQIQEMAECSGLSQKVIKHWFRNTLFKERQ,-0.459 ± 0.093
17,RPRTRITDDQLKILRAYFDINNSPSEEQIQEMAENSGLSQKVIKHWFRNTLFKERQ,-0.265 ± 0.11
18,RPRTRITDDQLKILRAYFDINNSPSEEQIQEMAEISGLSQKVIKHWFRNTLFKERQ,-0.518 ± 0.13
19,RPRTRITDDQLKILRAYFDINNSPSEEQIQEMAEMSGLSQKVIKHWFRNTLFKERQ,-0.304 ± 0.092
20,RPRTRITDDQLKILRAYFDINNSPSEEQIQEMAEQSGLSQKVIKHWFRNTLFKERQ,-0.18 ± 0.098
21,RPRTRITDDQLKILRAYFDINNSPSEEQIQEMAEASGLSQKVIKHWFRNTLFKERQ,-0.247 ± 0.091
22,RPRTRITDDQLKILRAYFDINNSPSEEQIQEMAEHSGLSQKVIKHWFRNTLFKERQ,-0.349 ± 0.14
23,RPRTRITDDQLKILRAYFDINNSPSEEQIQEMAEFSGLSQKVIKHWFRNTLFKERQ,-0.415 ± 0.11
